Experimental data taken from the supplement of paper PMC10598134.
± gives the standard deviation.

Assay: collision cross section of unmodified peptide (TIMS, N2, iRT-aligned); higher = larger / more extended gas-phase ion
Summary of the method: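 Synthetic peptide pools (~100 fmol/µL in 2% acetonitrile/0.1% formic acid, iRT standard spiked 1:40) were separated on a 120-min nanoflow C18 gradient at 60 °C. They were analysed on a timsTOF Pro/HT (dda-PASEF, nitrogen, ~2.4 mbar) and identified with MaxQuant. 1/K0 was calibrated with three reference ions and aligned run-wise to the median iRT peptide deviation. Collision cross section came from the Mason-Schamp equation, averaging 1–3 technical replicates of the most abundant feature per charge state.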

Substance | collision cross section (charge state: 2) [Å²] | collision cross section (charge state: 3) [Å²]
VRFHNPR | 337.63 ± 0.7 | 406.2 ± 6.3
PANEKATDDYHYEK | 416.54 ± 2.6 | 493.57 ± 4.5
VQFAPEK | 317.04 ± 1.1 | –
FGRGTGLTQPSQR | 395.55 ± 1.4 | 470.69 ± 2.1
FNALFAQGNYSEAAK | 435.05 ± 0.49 | –
LSESHPDATEDLQR | – | 474.77 ± 1.7
YIGTGHADTTK | 357.91 ± 0.48 | 452.61 ± 1.1
YSRGAGLGFSTAPNK | 407.91 ± 1.8 | 476.78 ± 0.4
LSEHATAPTR | 353.05 ± 0.78 | 452.29 ± 0.22
IVEKYGYTHLSAGELLR | 489.48 ± 3 | 538.24 ± 2.8
GLPGEPGPR | 309.4 ± 0.22 | –
AYILNLVK | 331.04 ± 1.1 | –
DYQPGITFIVVQK | 401.42 ± 0.24 | 485.74
GFPGAPGLPGLK | 357.61 ± 0.4 | –
LGILPVGRGK | 351.11 ± 0.11 | 438.91 ± 4.7
TVQGPPGEPGR | 344.87 ± 3.1 | –
ASPPLFQSR | 339.74 ± 0.58 | –
SSDLTDRVK | 344.22 ± 0.14 | 424.95 ± 0.87
KDYQPGITFIVVQK | – | 508.05 ± 1.2
SNEEGSEEKGPEVR | 397.33 ± 0.57 | 477.66 ± 4.4
IGSLDNITHVPGGGNK | – | 470.46 ± 1.9
AQLSQYFDAVK | 384.48 ± 1.1 | –

Substance | collision cross section (charge state: 2) [Å²] | collision cross section (charge state: 3) [Å²]
TLTPASSPVSSPSKHGDR | – | 512.67 ± 1
GGGGGRGGLHDFR | 368.29 ± 0.36 | 457.27 ± 2.8
LEENHYNTYISK | 419.55 ± 1 | 465.19 ± 1.2
LPEYPQVDDLLLR | 420.84 ± 0.76 | –
FLQEFYQDDELGKK | 448.73 ± 2.1 | 492.87 ± 3.2
CYYGSDTAGR | 353.22 ± 1.1 | –
LSITGTYDLK | 371.61 ± 0.6 | –
GVEAVGSYAENQR | 378.71 ± 0.16 | 463.38 ± 1.1
SGGGYGGDRSSGGGYSGDR | – | 476.79 ± 0.56
IPPTYQIR | 332.62 ± 0.59 | –
GRGAPPPPPSR | 341.09 ± 1.1 | 436.88 ± 3.2
ALYETELADAR | 385.99 ± 0.47 | –
FGDSRGGGGNFGPGPGSNFR | – | 494.59 ± 1.9
PPGFSPFRSSR | 357.9 ± 0.86 | 455.41 ± 1.7
IQQELQTAKK | 374.48 ± 0.53 | 429.26 ± 3.7
TSSEASVSSSVAK | 370.17 ± 0.67 | –
HGGSGGRGVSVSSAR | – | 479.93 ± 1.3
GGFQNRGGGSGGGGNYR | 412.29 | 474.43 ± 1.4
FSYTSQHSDYGQR | – | 485.4 ± 1
NLVTGDHIPTPQDLPQR | – | 475.9 ± 0.23
VPGALAAAKAAK | 365.46 ± 0.4 | 442.33 ± 1.2
GGGGGGGGGAPRGR | 341.22 ± 1.4 | 426.09 ± 5.4

Substance | collision cross section (charge state: 2) [Å²] | collision cross section (charge state: 3) [Å²]
VTRYPILGIPQAHR | – | 523.45 ± 1.1
LYAVHQEGNK | 357.2 ± 1.5 | 449.31 ± 1.1
DDSFLGKLGGTLAR | 410.69 ± 1.4 | 475.25 ± 2.7
FRSGNYR | 328.09 ± 0.7 | 402.54 ± 6.1
IGNSYFKEEK | 377.24 ± 0.91 | 453.77 ± 3.2
LVLPSQAQARLPSGEVVK | 482.13 ± 2.1 | 526.02 ± 0.85
YTCSFCGK | 338.71 ± 0.48 | –
LYLPVQNK | 336.72 ± 0.73 | –
GATVTRGVPPPPTVR | 421.15 | 511.54 ± 2
LGSASSSHGSIQESHK | – | 509.47 ± 1.3
GGSGGRGVSVSSAR | 376.75 ± 1.3 | 456.24 ± 1.8
YTAQVDAEEK | 355.03 ± 0.55 | –
ILDLKTGTVK | 361.56 ± 1.2 | 442.8 ± 7.1
SYHLQIVTK | 344.3 ± 0.59 | 447.43 ± 1.7
DYSSGFGGKYGVQADR | 432 ± 2.6 | 489.69 ± 5.9
PRLPATGTFK | 354.31 ± 1.3 | 450.95 ± 3.9
VPQAQPTKPALK | 384.79 ± 0.67 | 486.38 ± 2.7
LTSLNVKYNNDK | 409.04 ± 2 | 487.29 ± 4.9
LGPNDQYK | 325.88 ± 0.73 | –
IQTVPASHLQQGTASGSSK | – | 490.25 ± 12
VDIDVPDVNIEGPDAKLK | 470.4 ± 2.9 | 542.58 ± 2
DYQPGITFIVVQKR | 447.74 ± 2 | 520.02 ± 0.34

Substance | collision cross section (charge state: 2) [Å²] | collision cross section (charge state: 3) [Å²]
GRGAANDSTQFTVAGR | 411.19 | 473.86 ± 2.3
KITESVAETAQTIK | 420.69 ± 0.66 | 480.58 ± 0.22
LPTTAASTPDAVDK | 396.7 ± 0.66 | –
DKALPLEAEVAPVK | 407.43 ± 3.2 | 507.63 ± 4.6
LEQVEKELLR | 383.51 ± 1.5 | 455.22 ± 4.1
LQLGTPPPLLAARLVPPR | – | 572.92 ± 0.68
ELANFDPSRPGPPSGR | – | 494.4 ± 1
ITESVAETAQTIKK | 434.75 ± 1.5 | 508.11 ± 2.5
APVGSVVSVPSQSSASSDK | 452.28 ± 0.77 | –
GDAGEPGRPGSPGK | 357.76 ± 0.58 | 449.7 ± 1.2
YGRGQLNYPLPDFSK | 433.52 | 510.01 ± 10
DDSNLYINVK | 367.7 ± 0.74 | –
TEVNSGFFYK | 366.57 ± 0.48 | –
YIEIYVQKVNPSR | 435.38 ± 2.7 | 505.68 ± 2.1
LGTTPSVYGGAGGRGIR | 444.42 ± 1.7 | 523.45 ± 1.1
DLSTVEALQNLKNLK | 472.99 ± 2.9 | 543.69 ± 1.2
MFLSFPTTK | 348.96 ± 0.14 | –
SLFFGGKGAPLQR | 408.73 ± 1.1 | 446.07 ± 3.4
DDIIENAPTTHTEEYSGEEK | – | 551.19 ± 0.23
GRGGPGPAQR | 323.16 ± 0.71 | 428.92 ± 5.9
VTLEVGKVIQQGR | 428.45 ± 2.5 | 496.48 ± 2.3
DSINFLDHINGKK | – | 459.87 ± 3.8

Substance | collision cross section (charge state: 2) [Å²] | collision cross section (charge state: 3) [Å²]
GTVPDDAVEALADSLGKK | 478 ± 3.1 | 520.87 ± 1.8
DAIHFYNKSLAEHR | 440.43 ± 2.3 | 501.63 ± 3.9
YVHADAPTNK | 347.85 ± 2.8 | 415.08 ± 2
GDNGSVGEPGPK | 342.97 ± 0.86 | –
GEPGIPAIPGIR | 347.87 ± 0.23 | –
GSLEKGSPEDK | 350.53 ± 1.5 | 434.36 ± 3.6
GARLPGPVSSAR | 359.36 ± 0.74 | 465.32 ± 9.3
PRGVISTPVIR | 371.76 ± 0.55 | 450.44 ± 3.9
AYDATHLVK | 353.02 ± 0.48 | 420.22 ± 1.4
SYGIPYIETSAK | 384.66 ± 0.47 | –
ANLEKAQAELVGTADEATR | 474.85 ± 3.3 | 519.38 ± 2.8
VDVEVPDVSLEGPEGKLK | 461.73 ± 2.9 | 514.03 ± 36
VNIGQGSHPQKVK | 416.89 ± 2.1 | 469.44 ± 3.7
GDPGLIGPK | 313.62 ± 1.5 | –
GSELQNYFTK | 364.76 ± 0.54 | –
GSAPPGPVPEGSIR | 377.29 ± 0.67 | –
SHLRHAIPSAER | 388.74 ± 0.39 | 458.41 ± 2.7
LLFSNTAAQKLR | 416.62 ± 2.1 | 485.85 ± 3.4
SYSVGASGSSSR | 351.41 ± 0.48 | –
IVNVSLADLR | 359.17 ± 0.57 | –
VYPSSLSK | 317.31 ± 0.73 | –
